Data on one molecule can be found in paper PMC4387560 (Cell Research, 2015).

For this assay, the target named is T1, Scp1-WD40 (residues 567-1085) (S. pombe, UniProt O43043 567-1085).
T1 sequence (looked up): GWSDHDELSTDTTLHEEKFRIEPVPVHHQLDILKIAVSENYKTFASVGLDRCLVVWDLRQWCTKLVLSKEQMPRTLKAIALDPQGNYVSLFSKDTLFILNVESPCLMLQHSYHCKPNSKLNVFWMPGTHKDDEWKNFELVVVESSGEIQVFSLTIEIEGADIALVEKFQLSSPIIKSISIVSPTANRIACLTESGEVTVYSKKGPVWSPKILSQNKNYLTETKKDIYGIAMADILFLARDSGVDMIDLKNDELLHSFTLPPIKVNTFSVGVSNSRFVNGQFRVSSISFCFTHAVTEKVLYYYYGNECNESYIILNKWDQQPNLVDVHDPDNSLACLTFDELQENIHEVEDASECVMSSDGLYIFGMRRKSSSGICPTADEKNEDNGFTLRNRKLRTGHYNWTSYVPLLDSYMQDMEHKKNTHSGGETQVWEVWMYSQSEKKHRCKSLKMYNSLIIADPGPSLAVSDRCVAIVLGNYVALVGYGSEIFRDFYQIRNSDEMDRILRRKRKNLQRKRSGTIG
The experiment in a line: pull-down.

B1: MBP-fused regulatory domain of Sre1 (residues 628-900) (domain or fragment, S. pombe, UniProt Q9UUD1 628-900, looked up)
chain: QHSKSSVHAELRELPECTANLIENSHADDVFSPNMVERLWVLAKCTRDSAQMSDSIISSLSDVLVLSPLEVLASWYAADLLDALLMESLSRKVEISEIEEIISLCPKNSSIIRHALLAKLVLFPENTADSLNEVLAAYKNTLDLCSQDKRKQSSVLKINLSKLFTLHSCLSLALQRLGYGDVSKRMYQEIFVPDSDADITPLSFIISWTALNTFAPICTSPKENDVVEKMAMYVRTAIGTLKIQDLKLSRKLINSCIDIGSRLQEDLGYVSSA
In the case of B1, the binding result is “binds”.
